This data set concerns the molecule itself. The data set is described as follows: SEC; SrcA alone, 200 µl at 1.1 mg/ml; Superdex S200 10/300GL; 20 mM Tris pH 7.5, 200 mM KCl.

B1: His-tagged SrcA (SsrB-regulated chaperone A, STM2138) (natural protein)
chain: MYSRADRLLRQFSLKLNTDSIVFDENRLCSFIIDNRYRILLTSTNSEYIMIYGFCGKPPDNNNLAFEFLNANLWFAENNGPHLCYDNNSQSLLLALNFSLNESSVEKLECEIEVVIRSMENLYHILQDKGITLDTDYT
notes: SrcA (STM2138), type III secretion chaperone of Salmonella enterica serovar Typhimurium; the srcA gene was amplified from chromosomal DNA; STM numbers count on the LT2 genome; Dimer by crystal structure and gel filtration; source: E. coli Rosetta (DE3), purified (nickel-chelating resin, Mono-Q anion exchange); not shown: His6, C-terminal, kept
As to B1, the “stoichiometry N” value was 2.

The term stoichiometry N denotes a count of units in the complex or per binding partner.

These data come from paper PMC2816692, “Structural and Biochemical Characterization of SrcA, a Multi-Cargo Type III Secretion Chaperone in Salmonella Required for Pathogenic Association with a Host” (PLoS Pathogens, 2010).
